In patent US20250066456A1 (NOVAVAX, published 2025):
Like-named read-outs stand apart in the source and are kept apart here.

Legend:
[1] = molecular target: T1, BV2465 (recombinant CoV S glycoprotein, Delta) (SARS-CoV-2, UniProt P0DTC2 14-1273); assay: ELISA, plate coated with rS, serial dilution of the mAb, anti-mouse HRP, A450
[2] = molecular target: BV2425 (recombinant CoV S glycoprotein, Alpha) (SARS-CoV-2, UniProt P0DTC2 14-1273); assay: as above
[3] = molecular target: BV2509 (recombinant CoV S glycoprotein, BA.1) (SARS-CoV-2, UniProt P0DTC2 14-1273); assay: as above
[4] = molecular target: BV2438 (recombinant CoV S glycoprotein, Beta) (SARS-CoV-2, UniProt P0DTC2 14-1273); assay: as above
[5] = molecular target: BV2443 (recombinant CoV S glycoprotein, Gamma) (SARS-CoV-2, UniProt P0DTC2 14-1273); assay: as above
[6] = molecular target: T1, BV2465 (recombinant CoV S glycoprotein, …); assay: as above; remark: listed apart in the source
[7] = molecular target: T2, Delta Plus CoV S glycoprotein (recombinant) (Severe acute respiratory syndrome …, UniProt P0DTC2 14-1273)
[8] = molecular target: T2, Delta Plus CoV S glycoprotein …; assay: hACE2 receptor inhibition ELISA on coated rS; competitor hACE2-His

B1: 425.6 (antibody, V domains shown)
VH: VQLKQSGPSLVQPSQSLSITCTVSGFSLTSYGIHWVRQSPGKGLEWLGVIWRGGSTDYNAAFMSRLTITKDNSKSQVFFKMNSLQADDTAIYYCATHTEGDDVDYWGQGTSVTVSS
VL: QIVLTQSPAIMSVSPGEKVTMTCSASSTMSFMYWYQQKPGSSPRLLIYDTSNLASGVPVRFSGSGSGTSYSLTISRVEAEDAATYYCQQWNTYPLTFGAGTKLELKR
EC50 [1]: 0.012 µg/mL | EC50 [2]: 0.011 µg/mL | EC50 [3]: > 1 µg/mL | EC50 [4]: 0.011 µg/mL | EC50 [5]: 0.01 µg/mL

B2: 322.3 (antibody, V domains shown)
VH: RVQLQQSGPELVKPGASVTISCKASGYIFTSDYIHWVKQRPGQGPEWIGWIYPGNINTKYNEKFKGKATLTADKSSSTAYMQLSSLTSEDSAVYFCARDDGNLYYYAMDYWGQGTSVTVSS
VL: NIVLTQSPASLAVSLGQRATISCRASESVDSYGSSFMHWYQQKPGQPPKLLIYLASNLESGVPARFSGSGSRTDFTLTIDPVEADDAATYYCQQNNEDPRTFGGGTKLEIK
EC50 [6]: 0.082 µg/mL | EC50 [7]: 0.054 µg/mL

B3: 35.13 (antibody, V domains shown)
VH: QVQLQQSGAELGKPGASVKLSCRASGYTFTRYYIYWVKQRPGQGLEWIGEINPSNGDTHFNEKFKTKATLTVDKSSSSAHIHLTSLTSEDSAVYYCSIHAYSFDFWGQGTTLTVSS
VL: EIQMTQSPSSMSASLGDRITITCQATQDIVKNLNWYQQKPGKPPSFLIYHATELAKGVPSRFSGSGSGSDYSLTISNLESEDFADYYCLQFYDFPFTFGAGTKLELKR
IC50 [8]: 0.065 µg/mL
